What was measured:
[1] = target: T1, human CD47, endogenous cell surface form (human, UniProt Q08722 19-323); assay: cell-based or functional assay
T1 construct: Endogenous CD47 on human tumor cell lines; also called cell surface CD47; CD47 on Raji, CCRF-CEM and Daudi cells

[2] = target: T1, human CD47, endogenous cell surface form; assay: as described in Examples 2 and 3
Excerpt: Exemplary murine CD47 antibodies disclosed here are shown in FIG. 2, as disclosed in U.S. patent application Ser. No. 13/960,136 (Publication No. US20140140989).

Binder | phagocytosis of tumor cells (CFSE-labeled CCRF-CEM) by monocyte derived macrophages [1] [pM] | binding result [2]
CD47 antibody B6H12 (antibody, from another filing, V domains shown) VH: EVQLVESGGDLVKPGGSLKLSCAASGFTFSGYGMSWVRQTPDKRLEWVATITSGGTYTYYPDSVKGRFTISRDNAKNTLYLQIDSLKSEDTAIYFCARSLAGNAMDYWGQGTSVTVSS VL: DIVMTQSPATLSVTPGDRVSLSCRASQTISDYLHWYQQKSHESPRLLIKFASQSISGIPSRFSGSGSGSDFTLSINSVEPEDVGVYYCQNGHGFPRTFGGGTKLEIK | 66.7 | –
murine 9E4 antibody (antibody, mouse IgG1, V domains shown) VH: EVQLRQSGPELVKPGASVKISCKASGYSFTDYYMYWVKQSRVRSLAWIGRINPYTGATGYDQNFKDKASLIVDKSSSTAYMELRSLTSEDSAVYYCARGRNRYDGWFAYWGQGTLVTV VL: EIQMTQTTSSLSASLGDRVTISCRASQDISNYLNWYQQKPDGTVKLLIYYTSRLHSGVPSRFSGSGSGTDYSLTISNLDQEDIATYFCQQGNALPPTFGGGTNLEIK | – | binds

Reference: patent publication US20210371522A1 (CELGENE, published 2021)
